Data published in patent US12366576B2, “Compositions, assays, and methods for direct modulation of fatty acid metabolism” (Dana-Farber Cancer Institute, Inc., priority 2016, dated 2025).
Bridge positions count the residues as written; N and C are the ends. Square brackets hold non-standard residues; d marks the D form. Ends that are not written are not given here. S5 = C=CCCC[C@](C)(N)C(=O)O

Assays:
VLCAD = biological target: T1, VLCAD (Homo sapiens, UniProt P49748); test: 19F NMR binding study with fluorinated SAHB; settings: fluorinated SAHB 25 μM, VLCAD 0-125 μM
T1 construct: 10x His (N); made in house; host or cells: E. coli BL21(DE3), pET19b
T1 sequence (P49748 40-655): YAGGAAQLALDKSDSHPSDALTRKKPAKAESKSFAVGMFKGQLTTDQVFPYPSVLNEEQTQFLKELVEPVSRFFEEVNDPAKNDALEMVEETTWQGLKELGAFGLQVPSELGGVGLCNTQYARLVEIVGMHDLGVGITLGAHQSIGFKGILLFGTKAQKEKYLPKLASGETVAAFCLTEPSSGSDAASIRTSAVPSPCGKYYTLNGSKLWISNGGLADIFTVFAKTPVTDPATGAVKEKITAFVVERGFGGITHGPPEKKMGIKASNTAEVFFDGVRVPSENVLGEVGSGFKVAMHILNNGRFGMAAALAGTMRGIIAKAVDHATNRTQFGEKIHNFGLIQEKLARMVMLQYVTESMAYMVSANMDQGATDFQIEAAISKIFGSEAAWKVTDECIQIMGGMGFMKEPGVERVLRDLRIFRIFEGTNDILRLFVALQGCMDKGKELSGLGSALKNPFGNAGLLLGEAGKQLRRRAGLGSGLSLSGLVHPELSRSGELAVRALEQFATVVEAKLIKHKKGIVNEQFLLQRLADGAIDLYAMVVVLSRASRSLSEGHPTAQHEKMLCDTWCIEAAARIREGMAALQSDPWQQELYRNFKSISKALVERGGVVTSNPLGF
Description: (§1) To measure the direct binding interaction, ^19F NMR binding studies were conducted using fluorinated analogs of MCL-1 SAHBD. […] Both SAHBs, however, bind MCL-1ΔNΔC, as illustrated by a chemical shift of the peptide NMR peak in both cases (FIG. 15). […] To perform these experiments, N-terminal Btn-PEG analogs of the peptides were immobilized onto streptavidin probes that were then placed into protein solutions at a variety of concentrations to measure ligand-target association.
VLCAD. Mature human VLCAD lacking its cleavable leader sequence (aa 40-655) (NP_000009.1) was subcloned into the pET19b vector (Novagen) using NdeI and XhoI restriction sites. Correct insertion was confirmed by DNA sequencing. […]
(§2) To determine binding of SAHBs to VLCAD, fluorinated SAHB (25 μM) and VLCAD (0-125 μM) were mixed together in VLCAD FPLC buffer including 10% D2O to a final volume of 500 μL. […] The extent to which VLCAD bound the peptide was determined by measuring the peak width at half height (ν1/2) of the peptide ^19F signal. […] MCL-1ΔNΔC binding to SAHBs causes a change in the ^19F chemical shift of the peptide resulting in two peptide signals (instead of peak broadening), so extent of binding was quantified by measuring the peak height of “unbound” peptide relative to the bound peptide signal.

MCL-1ΔNΔC = biological target: T2, MCL-1ΔNΔC (Homo sapiens, UniProt Q07820); test: 19F NMR binding study with fluorinated SAHB; settings: fluorinated SAHB 25 μM, MCL-1ΔNΔC 0-45 μM
T2 construct: The MCL-1ΔNΔC construct was grown and expressed in E. coli as previously described; made in house; host or cells: E. coli BL21(DE3)
T2 sequence (Q07820 172-320 limits assumed, stated change not applied): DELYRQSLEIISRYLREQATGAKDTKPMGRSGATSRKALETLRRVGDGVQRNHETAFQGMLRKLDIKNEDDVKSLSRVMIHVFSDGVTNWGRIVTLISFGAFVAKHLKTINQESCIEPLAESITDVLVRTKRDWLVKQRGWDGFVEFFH
Description: as §1
MCL-1ΔNΔC. The MCL-1ΔNΔC construct was grown and expressed in E. coli as previously described (see, e.g., Stewart, Nat Chem Biol., 6(6):595-601 (2010)). Transformed BL21(DE3) E. coli were grown at 37° C. to an OD of 0.8, after which they were induced with 0.5 mM IPTG. […]
as §2

In the case of “MCL-1 SAHBD: hydrocarbon-stapled peptide mimicking the MCL-1 BH3 domain (Stabilized Alpha-Helix of BCL-2 Domain), SEQ ID NO:19 (RKALETLRRVGDGV[S5]RNH[S5]TAF; staple 15-19)”, the “19F NMR peptide peak broadening on VLCAD titration” value (VLCAD) is reported as “peak broadens, indicative of a direct binding event” and the “19F NMR binding to MCL-1ΔNΔC (chemical shift of the peptide peak)” value (MCL-1ΔNΔC) is reported as “binds directly”.
